In publication doi:10.1101/303024 (bioRxiv, 2018):

Molecular target: T1, Cdc24-6xHis (full-length, wild type) (S. cerevisiae (budding yeast), UniProt P11433 1-854)
T1 sequence: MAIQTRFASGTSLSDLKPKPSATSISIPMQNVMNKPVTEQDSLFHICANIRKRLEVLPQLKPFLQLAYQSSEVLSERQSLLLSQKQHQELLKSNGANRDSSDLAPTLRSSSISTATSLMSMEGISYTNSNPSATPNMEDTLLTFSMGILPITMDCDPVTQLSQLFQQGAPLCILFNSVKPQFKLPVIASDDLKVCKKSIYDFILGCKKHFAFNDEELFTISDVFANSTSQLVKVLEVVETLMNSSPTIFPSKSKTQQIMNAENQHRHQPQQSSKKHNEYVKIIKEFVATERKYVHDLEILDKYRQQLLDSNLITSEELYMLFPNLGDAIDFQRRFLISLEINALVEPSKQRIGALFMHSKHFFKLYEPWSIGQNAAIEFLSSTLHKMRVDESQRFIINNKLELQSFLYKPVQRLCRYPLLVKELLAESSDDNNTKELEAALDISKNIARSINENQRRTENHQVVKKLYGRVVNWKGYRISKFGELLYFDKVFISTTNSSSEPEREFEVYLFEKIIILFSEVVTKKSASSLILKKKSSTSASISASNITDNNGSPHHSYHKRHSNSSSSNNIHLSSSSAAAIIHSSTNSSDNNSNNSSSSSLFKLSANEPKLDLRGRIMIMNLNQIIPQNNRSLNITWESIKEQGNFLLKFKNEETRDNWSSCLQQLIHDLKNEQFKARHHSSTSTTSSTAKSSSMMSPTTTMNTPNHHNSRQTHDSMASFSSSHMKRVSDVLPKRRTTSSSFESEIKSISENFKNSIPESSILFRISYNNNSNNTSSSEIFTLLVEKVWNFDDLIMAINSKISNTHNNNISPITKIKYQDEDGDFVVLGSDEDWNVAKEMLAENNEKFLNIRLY
Test: liposome floatation

B1: Bem1 (full-length, wild type) (natural protein)
chain: MLKNFKLSKRDSNGSKGRITSADISTPSHDNGSVIKHIKTVPVRYLSSSSTPVKSQRDSSPKNRHNSKDITSPEKVIKAKYSYQAQTSKELSFMEGEFFYVSGDEKDWYKASNPSTGKEGVVPKTYFEVFDRTKPSSVNGSNSSSRKVTNDSLNMGSLYAIVLYDFKAEKADELTTYVGENLFICAHHNCEWFIAKPIGRLGGPGLVPVGFVSIIDIATGYATGNDVIEDIKSVNLPTVQEWKSNIARYKASNISLGSVEQQQQQSITKPQNKSAKLVDGELLVKASVESFGLEDEKYWFLVCCELSNGKTRQLKRYYQDFYDLQVQLLDAFPAEAGKLRDAGGQWSKRIMPYIPGPVPYVTNSITKKRKEDLNIYVADLVNLPDYISRSEMVHSLFVVLNNGFDREFERDENQNNIKTLQENDTATFATASQTSNFASTNQDNTLTGEDLKLNKKLSDLSLSGSKQAPAQSTSGLKTTKIKFYYKDDIFALMLKGDTTYKELRSKIAPRIDTDNFKLQTKLFDGSGEEIKTDSQVSNIIQAKLKISVHDI
binding result: binds
